Test results as given in article PMC8383118.

Columns and labels:
[1] = target: fluorescently labeled S. mutans XIP (dansyl-GLDWWSL) (Streptococcus mutans); assay: other fluorescence titration; 0.2 μM dansyl-XIP with increasing ComR, 1 h, room temperature, dark; 20 mM HEPES pH 7.5, 100 mM NaCl, 1 mM β-ME; dansyl emission intensity
[2] = target: ComR S. mutans, full length (Streptococcus mutans)
[3] = target: ComR S. mutans DNA-binding domain (DBD) construct (Streptococcus mutans); assay: ITC; 300 μM Prx (or PrxD32A) injected into 20 μM ComR S. mutans or DBD, 25 °C, gel filtration buffer (20 mM Tris-HCl pH 7.5, 100 mM NaCl, 1 mM β-ME); one site model
[4] = target: ComR S. mutans, full length (Streptococcus mutans); assay: as above
[5] = target: ComR:dansyl-XIP complex (Streptococcus mutans); assay: fluorescence polarisation; steady-state fluorescence anisotropy of 0.2 μM dansyl-XIP with 0.5 μM ComR and increasing Prx, 1 h, room temperature; 20 mM HEPES pH 7.5, 100 mM NaCl, 1 mM β-ME

Row | Molecule | Kd [1] | EMSA: Prx needed for complete inhibition (no DNA band shift) of 4 μM ComR with 8 μM XIP and FAM-labeled comS promoter probe; Prx added with or before XIP (apo-ComR) [2] | EMSA: Prx needed for complete inhibition (no DNA band shift) when added after the ComR:XIP:DNA complex was allowed to form (activated ComR) [2] | Kd [3] | dH [3] | stoichiometry N [3] | Kd [4] | dH [4] | stoichiometry N [4] | Kd [5]
1 | ComR S. mutans, full length (receptor) | 320 nM | – | – | – | – | – | – | – | – | –
2 | paratox (Prx) from S. pyogenes MGAS315 (natural protein) MLTYDEFKQAIDRGYITADTVMIVRKNGQIFDYVLPNEKIKNGEIVTDEKVEEVLVELSR | – | 6 µM | 2 µM | 50 nM | -20.8 kcal/mol | 1 | 390 nM | -11.8 kcal/mol | 1 | 700 nM
